Columns and labels:
rat EpCAM = biological target: T1, rat EpCAM (rat, UniProt O55159 24-266, limits assumed); experiment: hybridoma screening, ELISA
T1 sequence (looked up): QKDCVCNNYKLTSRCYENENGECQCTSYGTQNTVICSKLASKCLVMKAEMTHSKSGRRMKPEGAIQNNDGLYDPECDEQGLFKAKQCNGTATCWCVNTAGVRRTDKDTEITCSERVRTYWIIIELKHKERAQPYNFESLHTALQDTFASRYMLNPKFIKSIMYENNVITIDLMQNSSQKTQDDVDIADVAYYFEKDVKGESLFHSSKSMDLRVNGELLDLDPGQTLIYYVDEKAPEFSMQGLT

mouse EpCAM = biological target: T2, mouse EpCAM (mouse, UniProt Q99JW5 24-266); experiment: hybridoma screening, ELISA
T2 construct: extracellular domain; also called mouse EpCAM-ECD
T2 sequence (looked up): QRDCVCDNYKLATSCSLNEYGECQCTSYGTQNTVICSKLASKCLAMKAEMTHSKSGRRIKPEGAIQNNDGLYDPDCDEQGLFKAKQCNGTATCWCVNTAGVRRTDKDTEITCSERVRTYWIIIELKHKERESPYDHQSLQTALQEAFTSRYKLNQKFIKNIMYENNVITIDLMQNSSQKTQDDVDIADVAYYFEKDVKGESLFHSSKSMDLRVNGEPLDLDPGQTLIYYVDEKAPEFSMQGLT

B1: antibody of hybridoma clone 12C10F12 (antibody, V domains shown)
VH: QVQLQQSGAELAKPGASVKVSCKASGYTFTSYWMHWVKQRPGQGLEWIGYIRPSTGYTEYNQKFKDKATLTADKSSSTAYMQLSSLTFEDSAVYYCGRGDNWVGFANWGQGTLVTVSA
VL: QIVLTQSPAIMSASLGEEIALTCSASSSISYMHWYQQKSGTSPKLLIYSTSNLASGVPSRFSGSGSGTFYSLTISSVEAEDAADYFCHQWSTYHTFGSGTKLEIK
Does B1 bind (rat EpCAM)?
Result: no binding

Does B1 bind (mouse EpCAM)?
Result: no binding

Source: US20260053904A1 (BIOATLA, published 2026)
